Reference: the RNAGym collection of RNA variant scans (doi:10.1073/pnas.2313332121)

B1: TPR t1 (parent)
chain: GACCAAUCUGCCCUCAGAGCUCGAGAACAUCUUCGGAUGCAGAGGAGGCAGGCUUCGGUGGCGCGAUAGCGCCAACGUCCUCAACCUCCAAUGCAUCCCACCACAUGAUGAUGCCUGAAGAGCCUUGGUUUUUUG

Variants of: B1
Assay: polymerase ribozyme fitness, log enrichment relative to wild type (log ratio); higher = more active; in vitro selection for triplet polymerase activity
Outline: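 Mutant libraries for each subunit of a heterodimeric triplet polymerase ribozyme were made by PCR and then transcribed. Each library underwent one round of in vitro selection in triplicate: annealing with a biotinylated primer, the partner subunit and triplets, frozen incubation at −7 °C, gel excision of extended constructs, streptavidin-bead capture and RT-PCR. Input and output libraries were Illumina-sequenced, and only genotypes with ≥10 input reads and ≥1 read per output were kept. Fitness is the logarithm, base 2, of genotype enrichment over wild-type enrichment, computed from inverse-variance-weighted replicate averages.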

In order of rising “polymerase ribozyme fitness (log ratio)” value:
1. GACCAAUCUGCCCUCAGAGCUCGAGAACAUCUUCGGAUGGAGAGACGGCACGCUUCGAUGGCCCGAUAGCGCCAACGUCCUCAACCUCCAAUGCAUCCCACCACAUGAUAAUUCCUCAAGAGCCUUGGUUUUUUG  -7.24
2. GACCAAUCUGCCCUCAGAGCUCGAGAACAUCUUCGGAUGGAGAGGAGGCAAGCUUCGGUGGCGCGAUGGCGCCAACGUCCUCAACCUCCAAUGCAUCCCACCACAUGAUGAUGCCUGAAGAGCCUUGGUUUUUUG  -6.59
3. GACCAAUCUGCCCUCAGAGCUCGAGAACAUCUUCGGAUGGAGAGGAGGCAGGCUUCGGUGGCUCGAUAGCGCCAACGUCGUCAACCUCCAAUGCAUCCCACCACAUGAUGAUGCCUGAAGAGUCUUGGUUUUUUG  -6.43
4. GACCAAUCUGCCCUCAGAGCUCGAGAACAUCUUCGGAUGGAGAGGAGGCAGGCUUCGGUGGCGGGAUAGCGCCAACGUCCUCAAACUCCAAUGCAUCCCACCACAUGAUGACGCCUGAAGAGCCUUGGUUUUUUG  -6.02
5. GACCAAUCUGCCCUCAGAGCUCGAGAACAUCUUCGGAUGGAGAGGAGGCAGGCUUCGGUGUCGCGAUAGCGGCAACGUCCUCAACCUCCAAUGCAUCCCACCACAUGAUGAUGCCUCAAGAGCCUUGGUUUUUUG  -4.91
6. GACCAAUCUGCCCUCAGAGCUCGAGAACAUCUUCGGAUGGAGAGGAGGCAGGCUUCGGUUGCGCGAUGGCGCCAACGUCCUCAACCUCCAAUGCAUCCCACCACAUGAUGAUGCCUGAAGAGCCUUGGUUUUUUG  -4.86
7. GACCAAUCUGCCCUCAGAGCUCGAGAACAUCUUCGGAUGGAGAGGAGGCAGGCUUCGGUGGCGCGAUAGCGGCAACGUCCUCAACCUCCAAAGCAUCCCACCACAUGAUGAUUCCUGAAGAGCCUUGGUUUUUUG  -4.69
8. GACCAAUCUGCCCUCAGAGCUCGAGAACAUCUUCGGAUGGAGAGGAGGCAGGCUUCGGUGGCGCGAUAGCGUCAACGUCCUCAACCUCCAAUGCAUCCCACUACAUGAUGAUGCCGGAAGAGCUUUGGUUUUUUG  -4.29
9. GACCAAUCUGCCCUCAGAGCUCGAGAACAUCUUCGGAUGGAGAGGAGGCAGGCUUGGGUGGCGCGAUAGAGCCAACGUCCUCAACCUCCAAUGCAUCCCACCACAUGAUGAUGCCUGAAGAGCCUUGGUUUUUUG  -4.24
10. GACCAAUCUGCCCUCAGAGCUCGAGAACAUCUUCGGAUGGAGAGUAGGCAGGCUUCGGUGGCGCGAUAGCGCCAACGUCCUCAACCUGCAAAGCAUCCCACCACAUGAUGAUGCCUGAAGAGCCUUGGUUUUUUG  -4.08
11. GACCAAUCUGCCCUCAGAGCUCGAGAACAUCUUCGGAUGGAGAGGAGGCAGGCUUCGGUGGCGCGAUAGAGCCAACGUCCUCAACCUCCAAUGCAUCCCACCACAUGAUGAUGCCUGAAGAGCCUUGGUUUUUUG  -3.86
12. GACCAAUCUGCCCUCAGAGCUCGAGAACAUCUUCGGAUGGAGAGGAGGCAGGCUUCUGUGGCGCGAUAGCGCCAACGUCCUCAACCUCCACUGCAUCCCACCACAUGAUGAUGCCUGAAGAGCCUUGGUUUUUUG  -3.44
13. GACCAAUCUGCCCUCAGAGCUCGAGAACAUCUUCGGAUGGAGAGGAGGCAGGCUUCGGUGGCGCGAUAGCGCCAACGUCCUCAACCUCCAAUGCAUCCCACCAUAUGAUGAUCCCUGAAGAACCUUGGUUUUUUG  -3.43
14. GACCAAUCUGCCCUCAGAGCUCGAGAACAUCUUCGGAUGGAGAGGAGGCAGGCUUCGGUGGCGCGAUAGCGCCAACGUCUUCAACCUCCAAUGCAUCCCACCACAUGAUGAUGCCUGAAGAUCCUUGGUUUUUUG  -3.37
15. GACCAAUCUGCCCUCAGAGCUCGAGAACAUCUUCGGAUGGAGAGGAGGCAGACUUCGGUGGUGCGAUAGCGCCAACGUCCUCAACCUCCAAUGCAUCCCACCACAUGAUGAUGCCUGAAGAGCCUUGCUUUUUUG  -3.34
16. GACCAAUCUGCCCUCAGAGCUCGAGAACAUCUUCGGAUGGAGAGGAGGCAGGCUGCGGUGGCGCGAUAGCACCAACGUCCUCAAACUCCAAUGCAUCCCACCACAUGAUGAUGCCUGAAGAGCCUUGGUUUUUUG  -3.12
17. GACCAAUCUGCCCUCAGAGCUCGAGAACAUCUUCGGAUGGAGAGGAGGCAGGCUUCGGUGGCGCGAUAGCGCCAACGUCCUCAACCUCCAAGGCAUCCCACCACAUGAUGAUGCCUGAAGAGCCUUGGUUUUUUG  -2.95
18. GACCAAUCUGCCCUCAGAGCUCGAGAACAUCUUCGGAUGGAGACGAGGCAGGCUUCGGUGGCGCGAUAGCGCUAACGUCCUCAACCUCCAAUGCAUCCCACCACAUGAUGAUGCCUGAAGAGCCGUGGUUUUUUG  -2.93
19. GACCAAUCUGCCCUCAGAGCUCGAGAACAUCUUCGGAUGGAGAGGAGGCAGGCUUCGGUGCCGCGAUAUCGCCAACGUCCUCAACCUCCAAUGCAUCCCACCACAUGAUGAUGCCUGAAGAGCCUUGGUUUUUUG  -2.88
20. GACCAAUCUGCCCUCAGAGCUCGAGAACAUCUUCGGAUGGAGAGGAGGCAGGCUUUGGUGGCGCGAUAGCGCCAACGUCCUCAACCUCCAAUGCAUCCCUGCACAUGAUGAUGCCUGAAGAGCCUUGGUUUUUUG  -2.81
21. GACCAAUCUGCCCUCAGAGCUCGAGAACAUCUUCGGAUGGAGAGGAUGCAGGCUUCGGUGGCGCGAUAGCGCCAACGUCCUCAACCUCCAAUUCAUCCCACCACAUGAUGAUGCCUGAAGAGCCUUGGCUUUGUG  -2.76
22. GACCAAUCUGCCCUCAGAGCUCGAGAACAUCUUCGGAUGGAGAGGAGGCAGGCUUCGGUGGCGCGAUAGCGCCAACGUCCUCAACCUCCAAUGCAUCCCACCACAUGAUGAUGACUGAAGAGCCUUGGUUUUUUG  -2.35
23. GACCAAUCUGCCCUCAGAGCUCGAGAACAUCUUCGGAUGGAGAGGAGGCAGGCUUCGGUGGCGCGAUAGCUCCAACGUACUCAACCUCCAAUGCAUCCCACCACAUGAUGAUGCCUGAAGAGCCUUGGUUUUUUG  -2.32
24. GACCAAUCUGCCCUCAGAGCUCGAGAACAUCUUCGGAUGGAGAGGAGGCAGGCUUCGGUGGCGCGAUAGCGCCAACGUCCUCAACCUUCAAUGCAUCCCACCACAUGAUGAUGCCUGAAGAACCUUGGUUUUUUG  -2.03
25. GACCAAUCUGCCCUCAGAGCUCGAGAACAUCUUCGGAUGGAGAGGAGGCAGGCUUCGGUGGAGCGAUAGCGCCAACGUCCUCAACCUCCAAUGCAUCCCACCACAUGAUGAUGCCUGAAGAGCCUUGGUUUUUUG  -1.9
26. GACCAAUCUGCCCUCAGAGCUCGAGAACAUCUUCGGAUGGAGAGGAGACAGGCUUCGGUGGCGCGAUAGCGCCAACGUCCUCAACCUCCAAUGCAUCCCACCACAUGAUGAUGCCUGAAGAGCCUUGGUUUUUUG  -1.87
27. GACCAAUCUGCCCUCAGAGCUCGAGAACAUCUUCGGAUGGAGAGGAGGCAGGCUUUGGUGGCGCGAUAGCGCCAACGUCCUCAACCUCCAAUGCAUCCCACCACAUGAUGAUGCCUGAAGAGCCUUGGUUUUUUG  -1.79
28. GACCAAUCUGCCCUCAGAGCUCGAGAACAUCUUCGGAUGGAGAGGAGGCAGGCUUCGGUGGCGCGAUAGCGCCAACGUCCUCAACCUCCAAUGCAUCCCACCACAUGAUUAUGCCUGAAGAGCCUUGGUUUUUUG  -1.7
29. GACCAAUCUGCCCUCAGAGCUCGAGAACAUCUUCGGAUGGAGAGGAGGCAGGCUUCGGUGGCGCGAUAGCGCCAACGUCCUCAACCUCCAACGCAUCCCACCACAUGAUGAUGCCUGAAGAGCCUUGGUUUUUUG  -1.63
30. GACCAAUCUGCCCUCAGAGCUCGAGAACAUCUUCGGAUGGAGAGGAGGCAGGCUUCCGUGGCGCGAUAGCGCCAACGUCCUCAACCUCCAAUGCAUCCCACCACAUGAUGAUGCCUGAAGAGCCUUGGUUUUUUG  -1.56
31. GACCAAUCUGCCCUCAGAGCUCGAGAACAUCUUCGGAUGGAGAGGAGGCAGGCUUCGGUGGCGCGAUAGCGCCAACGUCCUCAACCUCCAAUGCAUCCCACCACAUGAUGAUGCCUGAAGAGCCUUCGUUUUUUG  -1.55
32. GACCAAUCUGCCCUCAGAGCUCGAGAACAUCUUCGGAUGGAGAGGAGUCAGGCUUCGGUGGCGCGAUAGCGCCAACGUCCUCAACCUCCAAUGCAUCCCACCACAUGAUGAUGCCUGAAGAGCCUUGGUUUUUUG  -1.55
33. GACCAAUCUGCCCUCAGAGCUCGAGAACAUCUUCGGAUGGAGAGGAGGCAGGCUUAGGUGGCGCGAUAGCGCCAACGUCCUCAACCUCCAAUGCAUCCCACCACACGAUGAUGCCUGAAGAGCCUUGGUUUUUUG  -1.47
34. GACCAAUCUGCCCUCAGAGCUCGAGAACAUCUUCGGAUGGAGAGGAGGCAGGCUUCGGUGGCGCGAUAGCGCCAACGUCCUCAACCUCCAAUGCAUCCCAUCACAUGAUGAUGCCUGAAGAGCCUUGGUUUUUUG  -1.22
35. GACCAAUCUGCCCUCAGAGCUCGAGAACAUCUUCGGAUGGAGAGGAGGCAGGCUUCGGUGGCGUGAUAGCGCCAACGUCCUCAACCUCCAAUGCAUCCCACCACAUGAUGAUGCCUGAAGAGCCUUGGUUUUUUG  -1.16
36. GACCAAUCUGCCCUCAGAGCUCGAGAACAUCUUCGGAUGGAGAGGAGGCAGGCUUCGGUGGCGCGAUAGCGCCAACGUCCUCAACCUCCAAUGCAUCCCACCACAUGAUGAUGCCUGAAGAUCCUUGGUUUUUUG  -0.991
37. GACCAAUCUGCCCUCAGAGCUCGAGAACAUCUUCGGAUGGAGAGGAGGCAGGCUUCGGUGGCGCGAUAGCGCCAACGUCCUCAACCUCCAAUGCAUCCCACCACAUGAUGAUACCUGAAGAGCCUUGGUUUUUUG  -0.856
38. GACCAAUCUGCCCUCAGAGCUCGAGAACAUCUUCGGAUGGAGAGGAGGCAGGCUUCGGUUGCGCGAUAGCGCCAACGUCCUCAACCUCCAAUGCAUCCCACCACAUGAUGAUGCCUGAAGAGCCUUGGUUUUUUG  -0.737
39. GACCAAUCUGCCCUCAGAGCUCGAGAACAUCUUCGGAUGGAGAGGAGGCAGGCUUCGGUGGCGCGAUAGCGCCAACGUCCUCAACCUCCAAUGGAUCCCACCACAUGAUGAUGCCUGAAGUGCCUUGGUUUUUUG  -0.125
40. GACCAAUCUGCCCUCAGAGCUCGAGAACAUCUUCGGAUGGAGAGGAGGCAGGCUUCGGUGGCGCGAUAGCGCCAACGUCCUCAACCUCCAAUGCAUCCCACCACAUGAUGAUGCCUGAAGAGCUUUGGUUUUUUG  0.744
41. GACCAAUCUGCCCUCAGAGCUCGAGAACAUCUUCGGAUGGAGAGGAGGCAGGUUUCGGUGGCGCGAUAGCGCCAACGUCCUCAACCUCCAAUGCAUCCCACCACAUGAUGAUGCCUGAAGCGCCUUGGUUUUUUG  1.26
42. GACCAAUCUGCCCUCAGAGCUCGAGAACAUCUUCGGAUGGAGAGGAGGCAGGCUUCGGUGACGCGAUAGCGUCAACGUCCUCAACCUCCAAUGCAUCCCACCACAUGAUGACGCCUGAAGAGCCUUGGUUUUUUG  1.6
